{
  "source": "patent US20170233494",
  "target": "mouse MBL (mannose-binding lectin of mouse serum)",
  "data": [
    {"protein": "recombinant mouse MASP-2 (rMASP-2) (protein) SKWPEPVFGRLVSPGFPEKYADHQDRSWTLTAPPGYRLRLYFTHFDLELSYRCEYDFVKLSSGTKVLATLCGQESTDTEQAPGNDTFYSLGPSLKVTFHSDYSNEKPFTGFEAFYAAEDVDECRVSLGDSVPCDHYCHNYLGGYYCSCRAGYILHQNKHTCSALCSGQVFTGRSGYLSSPEYPQPYPKLSSCTYSIRLEDGFSVILDFVESFDVETHPEAQCPYDSLKIQTDKGEHGPFCGKTLPPRIETDSHKVTITFATDESGNHTGWKIHYTSTARPCPDPTAPPNGSISPVQATYVLKDRFSVFCKTGFELLQGSVPLKSFTAVCQKDGSWDRPMPECSIIDCGPPDDLPNGHVDYITGPQVTTYKAVIQYSCEETFYTMSSNGKYVCEADGFWTSSKGEKLPPVCEPVCGLSTHTIGGRIVGGQPAKPGDFPWQVLLLGQTTAAAGALIHDNWVLTAAHAVYEKRMAASSLNIRMGILKRLSPHYTQAWPEEIFIHEGYTHGAGFDNDIALIKLKNKVTINGSIMPVCLPRKEAASLMRTDFTGTVAGWGLTQKGLLARNLMFVDIPIADHQKCTTVYEKLYPGVRVSANMLCAGLETGGKDSCRGDSGGALVFLDNETQRWFVGGIVSWGSINCGAAGQYGVYTKVINYIPWNENIISNF", "values": [
      {"measurement": "C4 deposition on mannan-coated wells (sMAP-/- mouse serum)", "result": "the amount of C4 was restored by up to 46% of that of wild-type serum in a dose-dependent manner and reached a plateau"}
    ]}
  ]
}
